T1: human CD154 endogenously expressed on D1.1 Jurkat cells (human, UniProt P29965 1-261)
T1 sequence: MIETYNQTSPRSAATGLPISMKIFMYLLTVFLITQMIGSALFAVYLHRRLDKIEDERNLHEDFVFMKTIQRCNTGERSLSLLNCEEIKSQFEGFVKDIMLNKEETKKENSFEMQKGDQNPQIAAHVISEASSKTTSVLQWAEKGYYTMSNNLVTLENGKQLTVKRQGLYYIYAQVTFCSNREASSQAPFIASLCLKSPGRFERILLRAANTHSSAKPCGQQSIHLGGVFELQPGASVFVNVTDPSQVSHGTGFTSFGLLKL

T2: shCD154-his (soluble human CD154, His6 fusion) (human, UniProt P29965 113-261)
T2 construct: predominantly trimer
T2 sequence: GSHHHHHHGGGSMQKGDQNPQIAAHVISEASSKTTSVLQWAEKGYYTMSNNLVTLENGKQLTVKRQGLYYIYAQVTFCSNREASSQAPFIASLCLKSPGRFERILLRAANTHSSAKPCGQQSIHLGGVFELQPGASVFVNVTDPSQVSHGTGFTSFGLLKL


Tests used:
[1] = target: T3, shCD154-ILZ (soluble human CD154, leucine zipper fusion) (human); assay: cell-based or functional assay
[2] = target: T1, human CD154 endogenously expressed on …; assay: cell-based or functional assay
[3] = target: T2, shCD154-his (soluble human CD154, His6 …); assay: SPR (ProteOn XPR36), antibody captured via anti-human IgG Fc, shCD154-his analyte, 25 C, 1:1 Langmuir model
Procedure: (§1) Affinity measurements using Surface Plasmon Resonance (SPR) were performed using a ProteOn XPR36 system (BioRad). […] Approximately 4700 RU (response units) of test antibodies were immobilized. The kinetic experiments were performed at 25° C. in running buffer (DPBS+0.03% polysorbate P20+100 μg/ml BSA). […] The association phase was monitored for 3 minutes at 50 μL/min followed by 15 minutes of buffer flow (dissociation phase). The chip surface was regenerated with two 18 second pulses of 100 mM H₃PO₄ (Sigma, Cat#7961) at 100 μL/min.
(§2) The collected data were processed using ProteOn Manager software. First, the data was corrected for background using inter-spots. Then, double reference subtraction of the data was performed by using the buffer injection for analyte injections. The kinetic analysis of the data was performed using a Langmuir 1:1 binding model.
(§3) Affinity measurements were done using ProteOn as described in Example 1.

[4] = target: T2, shCD154-his (soluble human CD154, His6 …); assay: SPR (ProteOn XPR36), antibody captured via anti-human IgG Fc, shCD154-his analyte, 25 C, two-states binding model
Procedure: as §1, §3

[5] = target: T2, shCD154-his (soluble human CD154, His6 …); assay: cell-based or functional assay
[6] = target: T2, shCD154-his (soluble human CD154, His6 …); assay: SPR (ProteOn XPR36), protocols of Example 1; analyte not given
Procedure: as §1, §2

[7] = target: T2, shCD154-his (soluble human CD154, His6 …); assay: SPR (ProteOn XPR36) as in Example 1, human CD154; mean ± SD, n = 4
Procedure: as §1, §2

[8] = target: T3, shCD154-ILZ (soluble human CD154, …); assay: cell-based or functional assay; remark: listed apart in the source

Binder	NF-κB SEAP reporter gene assay; IC50 (nM); shCD154-ILZ [1] [nM]	NF-κB SEAP reporter gene assay; IC50 (nM); D1.1 Jurkat [2] [nM]	Kd [3] [nM]	koff [3] [s⁻¹]	kon [3] [M⁻¹ s⁻¹]	also measured
C4LB189 (antibody, V domains shown, IgG2sigma effector silent mAb; lambda VL; also called VH C4LH240; VL C4LL116) VH: QVQLVQSGAEVKKPGASVKVSCKASGYTFAAYYIHWVRQAPGQGLEWMGRINPDSGGTDYAQRFQGRVTMTRDTSISTAYMELSRLRSDDTAVFYCARDWNYYDGSGYFGPGYYGLDVWGQGTTVTVSS VL: SYELTQPPSVSVSPGQTASVTCSGDKLGDKYVCWYQRKPGQSPVLVIYQDRKRPSGIPERFSGSNSGNTATLTISGTQAIDEADYYCQAWDSGTVVFGRGTKLTVL	1.63	2.06	0.581	0.000206	355000	
C4LB191 (antibody, V domains shown, IgG2sigma effector silent mAb; lambda VL; also called VH C4LH242; VL IAPL39) VH: QVQLVQSGAEVKKPGASMKVSCKASGYTFTDYYIHWVRQAPGQGLEWVGRFNPNSGDTNGAQKFQGRVTMTRDTSISTAYMELTRLRSDDTAVYHCAREGELAGIFFDYWGQGTLVTVSS VL: SYELTQPPSVSVSPGQTASITCSGDKLGDKYVSWNHQKPGQSPVLVIYQDRKRPSGIPERFSGSNSGNTATLTISGTQAMDEADYYCQAWDSSTVVFGGGTKLTVL			0.0313	0.000176	5.62e+06	
C4LB94 (antibody, V domains shown, IgG2sigma, kappa; also called VH C4LH99; VL PH9L2) VH: QVQLVQSGAEVKKPGSSVKVSCKASGGTFSSYAISWVRQAPGQGLEWMGGISPYFGNTNYAQKFQGRVTITADESTSTAYMELSSLRSEDTAVYYCARDTGWVGAFYLDYWGQGTLVTVSS VL: not shown	4.37	0.13				Kd [4]: 2.09 nM; koff [4]: 0.00329 s⁻¹; kon [4]: 1.58e+06 M⁻¹ s⁻¹
C4LB150 (antibody, V domains shown, IgG2sigma effector silent mAb; lambda VL (OmniRat antibodies were cloned as IgG2sigma/lambda); also called VH C4LH201; VL C4LL82) VH: QLQLQESGPGLVKPSETLSLTCTVSGGSISSYSFYWGWIRQPPGQGLEWIGSLYYSGSTYYNPSLKSRATMSVVTSKTQFSLNLNSVTAADTAVYYCARLQLGTTTDYFDHWGQGTLVTVSS VL: SYELTQPPSVSVSPGQTASITCSGDELGDKFACWYQQKPGQSPVLVIWQENKRPSGIPERFSGSNSGNTATLTISGTQAMDEADYYCQAWDSDTAVFGGGTKLTVL	4.95	3.57				Kd [4]: 2.72 nM; koff [4]: 0.00617 s⁻¹; kon [4]: 2.27e+06 M⁻¹ s⁻¹
C4LB199 (antibody, V domains shown, IgG2sigma effector silent mAb; lambda VL; also called VH C4LH250; VL C4LL125) VH: QVQLQESGPGLVKPSETLSLTCTVSGDSISSFIYYWGWIRQPPGKGLDWVGCIYSSGGTYYNPSLKSRVTISVDTSKNQFSLKLPSVTAADTAVYYCARLWLGTTTDYFDYWGQGTLVTVSS VL: SYELTQPPSVSVSPGQTVSITCSGDKLGDKFACWYQQKPGQSPVVVIYQDDKRPSGIPERFSGSTSGNTATLTISGTQAMDEADYYCQAWDSNTVVFGGGTKLTVL	1.09	1.21	0.253	0.000404	1.6e+06	
C4LB89 (antibody, human IgG2, kappa, IgG2sigma/kappa; also called VH C4LH165; VL C4LL49) heavy: QVQLVQSGAEVKKPGSSVKVSCKASGGTFSSYGISWVRQAPGQGLEWMGWISPIFGNTNYAQKFQGRVTITADESTSTAYMELSSLRSEDTAVYYCARSRYYGDLDYWGQGTLVTVSSASTKGPSVFPLAPCSRSTSESTAALGCLVKDYFPEPVTVSWNSGALTSGVHTFPAVLQSSGLYSLSSVVTVPSSNFGTQTYTCNVDHKPSNTKVDKTVERKCCVECPPCPAPPAAASSVFLFPPKPKDTLMISRTPEVTCVVVDVSAEDPEVQFNWYVDGVEVHNAKTKPREEQFNSTFRVVSVLTVLHQDWLNGKEYKCKVSNKGLPSSIEKTISKTKGQPREPQVYTLPPSREEMTKNQVSLTCLVKGFYPSDIAVEWESNGQPENNYKTTPPMLDSDGSFFLYSKLTVDKSRWQQGNVFSCSVMHEALHNHYTQKSLSLSPGK light: not shown			0.235	0.00038	1.61e+06	NF-κB SEAP reporter gene assay; IC50 [5]: 6.22 nM
C4LB119 (antibody, V domains shown, IgG2sigma) VH: QVQLVQSGAEVKKPGSSVKVSCKASGGTFSSYYISWVRQAPGQGLEWMGAIDPYFGYANYAQKFQGRVTITADESTSTAYMELSSLRSEDTAVYYCARTGLNYGGFDYWGQGTLVTVSS VL: EIVLTQSPATLSLSPGERATLSCRASQSVSSYLAWYQQKPGQAPRLLIYDASNRATGIPARFSGSGSGTDFTLTISSLEPEDFAVYYCQQRSNWPLTFGQGTKVEIK						Kd [6]: 4.79 nM; koff [6]: 0.0088 s⁻¹; kon [6]: 1.84e+06 M⁻¹ s⁻¹
C4LB237 (antibody, V domains shown, C4LB89 variable regions cloned as wild-type IgG1/kappa; also called C4LBB237) VH: QVQLVQSGAEVKKPGSSVKVSCKASGGTFSSYGISWVRQAPGQGLEWMGWISPIFGNTNYAQKFQGRVTITADESTSTAYMELSSLRSEDTAVYYCARSRYYGDLDYWGQGTLVTVSS VL: DIQMTQSPSSLSASVGDRVTITCRASQSISSYLNWYQQKPGKAPKLLIYYANSLQSGVPSRFSGSGSGTDFTLTISSLQPEDFATYYCQQSDSIPWTFGQGTKVEIK						NF-κB SEAP reporter gene assay; IC50 [5]: 2.56 nM; Kd [7]: 0.0236 nM; koff [7]: 6.05e-05 s⁻¹; kon [7]: 2.59e+06 M⁻¹ s⁻¹
C4LB83 (antibody, V domains shown, IgG2sigma) VH: QVQLVQSGAEVKKPGSSVKVSCKASGGTFSSYAISWVRQAPGQGLEWMGWIIPIFGNTNYAQKFQGRVTITADESTSTAYMELSSLRSEDTAVYYCAREKDFRGYTKLDYWGQGTLVTVSS VL: DIQMTQSPSSLSASVGDRVTITCRASQSINNWLNWYQQKPGKAPKLLIYAASSLQSGVPSRFSGSGSGTDFTLTISSLQPEDFATYYCQQSFSFPYTFGQGTKVEIK						Kd [6]: 2.23 nM; koff [6]: 0.0047 s⁻¹; kon [6]: 2.1e+06 M⁻¹ s⁻¹
C4LB5 (antibody, V domains shown, Phage-derived; IgG2sigma effector silent mAb (V234A, G237A, P238S, H268A, V309L, A330S, P331S), kappa; also called VH C4LH12; VL C4LL8) VH: QVQLVQSGAEVKKPGSSVKVSCKASGGTFSSYAISWVRQAPGQGLEWMGGIIPIFGTANYAQKFQGRVTITADESTSTAYMELSSLRSEDTAVYYCARGASVWDGPAEVFDYWGQGTLVTVSS VL: not shown	0.54	1.55	0.312	0.000178	570000	B cell activation assay; IC50 (nM); shCD154-ILZ/cyno B cell [8]: 5.35 nM; B cell activation assay; IC50 (nM); shCD154-ILZ/human B cells [8]: 2.74 nM

Reference: patent US20170037136A1 (Janssen / Centocor, published 2017)
